From paper PMC6856015

Target: Calmodulin (recombinant CaM) (UniProt P0DP23)
Experiment: cross-linking; photoaffinity labeling (PAL): 5 μM CaM and 5 μM Bpa-Mover(203-221), 10 mM HEPES pH 7.2, 150 mM KCl, 5 mM DTT, 2 h RT in the dark, with 100 μM Ca2+, UV irradiation; photoadducts read by SDS-PAGE and MALDI-TOF-MS

Bpa-Mover(203-221), photoreactive variant of the rat Mover peptide 203-221 (from UniProt A8WCF8 203-221)
stoichiometry N (peptide per CaM): 1
